Two substances from patent US10251952B2, “Humanized anti-tau(pS422) antibody brain shuttles and use thereof” (Hoffmann-La Roche Inc., priority 2014, dated 2019) can be followed below.

For orientation: Kd means the equilibrium constant for the complex coming apart.

One test concerns the target T1, NPY1R (Homo sapiens, UniProt P25929).
T1 sequence (P25929 1-384): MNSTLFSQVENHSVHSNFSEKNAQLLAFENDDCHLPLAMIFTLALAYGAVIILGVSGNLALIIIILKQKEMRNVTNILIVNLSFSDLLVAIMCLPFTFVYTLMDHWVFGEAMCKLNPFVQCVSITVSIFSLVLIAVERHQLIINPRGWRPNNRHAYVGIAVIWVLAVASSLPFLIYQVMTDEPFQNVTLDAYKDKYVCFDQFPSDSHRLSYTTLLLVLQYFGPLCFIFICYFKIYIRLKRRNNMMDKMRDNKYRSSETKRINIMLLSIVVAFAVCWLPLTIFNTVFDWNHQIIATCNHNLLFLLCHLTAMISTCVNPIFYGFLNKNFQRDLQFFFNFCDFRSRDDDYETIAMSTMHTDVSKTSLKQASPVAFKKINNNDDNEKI
Kind of test: effect on the Y2Receptor family.

Another test concerns the target NPY4R (Homo sapiens, UniProt P50391). Kind of test: effect on the Y2Receptor family.
For a further test, the target named is T2, NPY2R (Homo sapiens, UniProt P49146).
T2 sequence (P49146 1-381): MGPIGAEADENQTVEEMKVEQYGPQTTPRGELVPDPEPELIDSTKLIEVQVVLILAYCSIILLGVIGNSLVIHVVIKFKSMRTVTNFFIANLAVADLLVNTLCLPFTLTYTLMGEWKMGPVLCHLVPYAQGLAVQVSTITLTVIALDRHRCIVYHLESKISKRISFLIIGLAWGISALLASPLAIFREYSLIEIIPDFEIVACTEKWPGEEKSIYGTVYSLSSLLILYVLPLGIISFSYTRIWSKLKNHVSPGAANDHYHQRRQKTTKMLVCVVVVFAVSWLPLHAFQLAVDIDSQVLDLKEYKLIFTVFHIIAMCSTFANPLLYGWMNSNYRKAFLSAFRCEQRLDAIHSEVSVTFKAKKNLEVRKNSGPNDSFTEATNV
Kind of test: effect on the Y2Receptor family.

The target in another test is T3, NPY5R (Homo sapiens, UniProt Q15761).
T3 sequence (Q15761 1-445): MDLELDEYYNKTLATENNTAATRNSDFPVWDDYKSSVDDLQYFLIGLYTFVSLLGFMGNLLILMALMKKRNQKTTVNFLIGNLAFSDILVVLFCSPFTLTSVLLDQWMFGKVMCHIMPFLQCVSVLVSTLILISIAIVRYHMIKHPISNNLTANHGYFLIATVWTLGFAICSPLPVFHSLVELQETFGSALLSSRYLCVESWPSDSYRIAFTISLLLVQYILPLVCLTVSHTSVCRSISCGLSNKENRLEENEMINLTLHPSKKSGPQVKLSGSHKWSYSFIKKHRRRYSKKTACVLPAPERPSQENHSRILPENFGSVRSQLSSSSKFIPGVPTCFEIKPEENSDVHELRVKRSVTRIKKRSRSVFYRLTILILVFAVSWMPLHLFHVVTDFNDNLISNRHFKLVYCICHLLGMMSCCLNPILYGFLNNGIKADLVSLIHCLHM
The test can be described thus: effect on the Y2Receptor family.

In test [1] the target is anti-HeliCar motif amino acid sequence antibody. The test can be described thus: binding of PYY peptides to anti-HeliCar motif antibody.

Square brackets hold non-standard residues; d marks the D form. Ends that are not written are not given here. NMeR = CN[C@@H](CCCNC(=N)N)C(=O)O; Pqa = not defined here

NPY4R, sequence (P50391 whole entry, species assumed): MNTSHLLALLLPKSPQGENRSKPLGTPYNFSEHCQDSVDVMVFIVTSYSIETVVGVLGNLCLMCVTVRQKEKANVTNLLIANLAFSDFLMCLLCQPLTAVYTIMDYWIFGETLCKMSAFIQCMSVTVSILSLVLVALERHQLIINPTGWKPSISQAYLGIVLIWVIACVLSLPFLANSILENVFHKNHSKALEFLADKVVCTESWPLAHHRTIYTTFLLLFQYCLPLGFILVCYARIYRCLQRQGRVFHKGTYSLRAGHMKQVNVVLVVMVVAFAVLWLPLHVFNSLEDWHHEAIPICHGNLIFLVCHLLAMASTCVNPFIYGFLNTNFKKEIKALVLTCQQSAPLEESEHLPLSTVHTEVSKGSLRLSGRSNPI

With “Ac-Ile-Lys-Pqa-Arg-His-Tyr-Leu-Asn-Trp-Val-Thr-Arg-Gln-(NMe)-Arg-Try-NH2 * 4 HOAc (Ac-IK[Pqa]RHYLNWVTRQ[NMeR]Y-NH2; reading uncertain; also: salt: 4 HOAc, printed as Ac-Ile-Lys-Pqa-Arg-His-Tyr-Leu-Asn-Trp-Val-Thr-Arg-Gln-(NMe)-Arg-Try-NH2 * 4 HOAc) [reference compound]”, the NPY1R result in the test with NPY1R is “inactive”. The NPY4R result with NPY4R is “inactive”. Also, the NPY2R with NPY2R was 1.0 nM. For the same substance, the NPY5R entry with NPY5R is “inactive”.

In the case of “IKPEAPGEDASPEAHLANEVARLHYLNLVTRQRY-NH2 [PYY_HeliCar]”, the NPY4R entry on NPY4R is “inactive”. The Kd in test [1] was found to be 12 nM. The same substance registered an NPY2R at NPY2R of 6.38 nM. Moreover, the NPY5R result on NPY5R was “inactive”.
